Assay [1] concerns the target prekallikrein (PK). Nature of the assay: SPR; Pioneer biosensor, COOHV chip; PMSF-treated PK (FC-1) or PKa (FC-3) immobilised by amine coupling; analytes diluted to 250 nM, OneStep gradient injection, 30 uL/min, dissociation 600 s; 22 °C; 10 mM Hepes, 140 mM NaCl, 1.5 mM CaCl2, 40 uM ZnCl2 pH 7.4; simple ka/kd 1 or 2 binding site model.
Assay [2] concerns the target kallikrein (PKa) (UniProt P03952). The description is as above.

kallikrein (PKa), sequence (P03952 20-390, chain 1 of 2): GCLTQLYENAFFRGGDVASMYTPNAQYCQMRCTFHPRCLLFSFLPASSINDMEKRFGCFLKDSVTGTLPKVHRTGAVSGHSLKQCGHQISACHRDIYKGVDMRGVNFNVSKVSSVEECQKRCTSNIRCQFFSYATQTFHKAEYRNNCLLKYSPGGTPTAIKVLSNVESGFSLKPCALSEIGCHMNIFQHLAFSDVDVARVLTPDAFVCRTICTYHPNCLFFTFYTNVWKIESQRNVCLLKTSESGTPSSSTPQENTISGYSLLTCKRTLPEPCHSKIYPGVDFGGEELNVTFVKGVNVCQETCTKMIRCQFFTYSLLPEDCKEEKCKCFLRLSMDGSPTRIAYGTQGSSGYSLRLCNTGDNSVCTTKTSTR
kallikrein (PKa), sequence (P03952 391-638, chain 2 of 2): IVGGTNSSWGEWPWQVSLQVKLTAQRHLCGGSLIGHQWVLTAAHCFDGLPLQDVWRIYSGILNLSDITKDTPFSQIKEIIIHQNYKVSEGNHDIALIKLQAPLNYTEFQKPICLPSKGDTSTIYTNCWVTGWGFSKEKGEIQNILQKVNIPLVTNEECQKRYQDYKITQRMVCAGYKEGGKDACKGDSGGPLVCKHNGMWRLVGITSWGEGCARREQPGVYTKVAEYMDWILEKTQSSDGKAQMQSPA

“Factor IX (FIX) (from UniProt P00740 47-461) (natural protein)”: in assay [1], the equilibrium dissociation constant (Kd) was determined as 2.17 nM, the dissociation rate constant (koff) was found to be 0.000239 s⁻¹ and the kon worked out at 110000 M⁻¹ s⁻¹.
In assay [1], “high molecular weight kininogen (HK) (natural protein)” registered a dissociation constant (Kd) of 0.245 nM, an off-rate (koff) of 3.73e-05 s⁻¹ and a kon of 152000 M⁻¹ s⁻¹. In assay [2], the dissociation constant (Kd) was found to be 0.272 nM, the koff worked out at 2.82e-05 s⁻¹ and the association rate constant (kon) was 104000 M⁻¹ s⁻¹.
In assay [1], “activated Factor IX (FIXa) (from UniProt P00740 47-191; P00740 227-461) (enzyme)” displayed a Kd of 0.492 nM, a koff of 6.45e-05 s⁻¹ and a kon of 131000 M⁻¹ s⁻¹.

The values above are taken from paper PMC7826336.
